Values joined by “and” are separate entries in the source; they are usually repeats but may differ in a detail not shown here. Equal values may be shown once.
Experiments:
trypsin = biological target: T1, trypsin (Bos taurus, UniProt P00760); test: in vitro susceptibility to proteolytic degradation (tryptic digestion, HPLC); format: in vitro ADME
T1 construct: purchased Worthington Biochem Corp
T1 sequence (P00760 24-246): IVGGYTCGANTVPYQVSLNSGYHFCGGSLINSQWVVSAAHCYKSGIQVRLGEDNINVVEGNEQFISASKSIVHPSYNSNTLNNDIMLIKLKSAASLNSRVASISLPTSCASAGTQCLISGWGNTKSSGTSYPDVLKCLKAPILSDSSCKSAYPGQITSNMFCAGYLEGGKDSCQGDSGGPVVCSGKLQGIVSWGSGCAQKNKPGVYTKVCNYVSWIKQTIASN

[1] = shelf stability, activity followed with the Receptor Binding Assay; format: physicochemical; settings: for activity retained (RBA), 2 months/37° C.: stored 2 months at 37° C.; for activity retained (RBA), 2 months/4° C.: stored 2 months at 4° C.
From the text: Samples are further analyzed by testing the biological activity in the Receptor Binding Assay (RBA) system and/or in a mitogenic assay system according to the standard procedure. Under these conditions, the extent of activity of modified EGF was compared with that of the unmodified EGF on a weight per weight basis. A similar test is used to follow the stability of EGF products. The RBA is described in Savage et al., Analytical Biochem, 111, pages 195 et seq. (1981) and in U.S. Pat. No. 4,717,717. For RBA studies, a cell line with a high density of receptors for EGF is grown to confluency in microwell plates. After removing the growth media and slightly fixing the cells, the binding of modified EGF to the cell surface in the presence of competing iodinated-EGF is compared with the binding of non-radioactive, unmodified EGF under the same conditions. The concentration of modified EGF is extrapolated from the standard curve made for unmodified EGF. Acylated EGF with acyl side chains ranging from C2 to C8 retained biological activity according to the RBA.
The shelf stability of EGF and acylated EGF derivatives with different degrees of modification and acyl side chains was studied using the Receptor Binding Assay (RBA) system. […]

EGF sensitive cell line = test: mitogenic assay, tritium labelled thymidine incorporation; format: cell-based; settings: compared with C2 acylated EGF
Method: For mitogenic assay systems, an EGF sensitive cell line is grown to confluency at the bottom of microwell plates. After replacing the regular growth media with growth factor poor media, modified EGF is added with tritium labelled thymidine. The extent of incorporation of the tritium labelled thymidine in the presence and absence of growth factors is then weighed. The effects of modified EGF are compared with those of unmodified EGF under the same system.

With “C2 -EGF: human EGF triacylated with acetyl groups” the “remaining fraction that resisted proteolysis” value (trypsin; mixture C2-EGF:native EGF 1.5 to 1, TPCK-trypsin, up to 4 hours incubation) was 75-80%, the “fraction that resisted proteolytic cleavage at Arg 41 and Arg 45” value (trypsin; trypsin, over 4 hours incubation at 30° C.) was “over 75%” and the “tryptic fragments generated (HPLC, cation exchanger column)” value (trypsin; tryptic digestion, substance alone) was “did not generate any fragment”. The “activity retained (RBA), 2 months/37° C.” value [1] was 87.37% and 88%, the “improvement of retained activity over control unmodified native EGF” value ([1]; stored at 37° C., 2 months) was 30% and the “activity retained (RBA), stored time 0” value [1] was 100%.
With “C6 -EGF: acylated human EGF with C6 acyl side chain” the “activity retained (RBA), 2 months/4° C.” value [1] was 61.88%, the “activity retained (RBA), 2 months/37° C.” value [1] was 66.94% and the “activity retained (RBA), stored time 0” value [1] was 100%.
With “C8 -EGF: acylated human EGF with C8 acyl side chain” the “activity retained (RBA), 2 months/4° C.” value [1] was 83.19%, the “activity retained (RBA), 2 months/37° C.” value [1] was 69.04% and the “activity retained (RBA), stored time 0” value [1] was 100%.
For “C12: acylated EGF having an acyl side chain of C12”, the “reactivity in the mitogenic assay” value (EGF sensitive cell line) was “nearly as reactive as C2”.
In the case of “Control EGF: Recombinantly produced human EGF (Chiron Corporation), unmodified 53 amino acid polypeptide, used as control [reference compound]”, the fraction digested (trypsin; mixture C2-EGF:native EGF 1.5 to 1, TPCK-trypsin, within about 20 minutes) is reported as “over 85%”, the cleavage by trypsin (trypsin; within 5 minutes post-incubation, 30° C.) is reported as “over 65%” and the “remaining molecules cleaved by trypsin” value (trypsin; within 2 hours post-incubation) is reported as 35%. The “activity retained (RBA), 2 months/4° C.” value [1] was 81.09% and 81%, the “activity retained (RBA), 2 months/37° C.” value [1] was 57.52% and 58% and the “activity retained (RBA), stored time 0” value [1] was 100%.
